Values quoted from earlier work in patent publication US20150177237.

Biological target: thrombin (UniProt P00734+P00734)
Conditions: n positions 6-20 are abasic (x); CITED known Kd of thrombin for its aptamer; nanopore event ratios at 10-1000 nM thrombin closely match theory from this Kd; 1 M KCl, 10 mM Tris pH 7.5

AAAAANNNNNNNNNNNNNNNAAAAAAAAAAGGTTGGTGTGGTTGG [5A15x10A_TBA]
Kd: 50 nM
